Measured values: the DeepSol protein solubility set

Test: soluble on expression in E. coli; label from the status in PepcDB or PDB records

Sequence	soluble on expression in E. coli
MGSDKIHHHHHHMILKFLNETLPWVRKPSRYIGREINSVVKDPEEISLRIALVFPDTYEVGTSNHGLEILYHILNEQPDVWAERSYLPWIDMIERMKEKDIPLYTMESYTPLYQMDAVGISLEYELSYTNVVEVLKLSKIPIFFWERKRRDPIVLGGGPCSSNPEPIYGFFDAILIGDGEEAILEIAQVLKETKGEERETIWKELSRIEGVYVPAFYEQKGRKIVPVSPEYPRTIKRRIVKDLNSQPVPVKKIVPNVESVHDRAVIEVARGCTRGCRFCHASVYYRPVRERSLENILENVEEMLKNTGYEEVSLLSLSTMDHTQIGEIVSELLKRYSEKKIAVSIPSTRMDRFGVEIAGRIASVRKTGLTFAPEAATQRLRNIINKNISEEDIFATLEAAKKSGWRRVKLYFMMGLPGETNEDLEEMVKLLERVKRLGFKEVSASVSVFVPKPHTPFQFARQISPEEAYEKIKTLKRAKRSARISYHDPRMSLLEGVFSRGDRKLLDLIVKAHELGALFDEWSEMFRFDLWEKAFDETGIDPNDYLREIDPSEDFPWDHIDMGVTKEFLKEEYRKALKGETTDDCRWNRCYLCGVCFRFGVKNVLFGGERG	not soluble
MGSDKIHHHHHHMILMKSYYRLLGHYYLLLRFFKNLRDLGVSLLELENILGVIYWYLFKQKYSTRCRCCSELYINQTNINPYYFASACKLKKMGLPVEIRNSVFYYDGLEVYPTVIPYIARVIKYNWQVFNMKGNPMISFTVKNHDFKAVLLKGYEGLLQFYEQFILEQYGMFDYKDKTVIDIGGFIGDTALYFYSKEARKIVSFEPSKKNYTILIKNITLNNIKNVIPINAGVWDENTKGIITNPAPTAYRVKEESKGDVALVSILDIIDSYRPDIIKMDCEGCEYKVFEKLLETGYIYDVPEYVFEAHGNIKNELLSKLRSLDEFRLCVHSDLGNMAIVSLKKL	not soluble
MGSDKIHHHHHHMIMATLKDIAKLAKVSQATVSRVLNKDETLSVSQKTKHRILMVADELGYQKHLKTTNSPQVRQKIAIVQWYSQQEELNDLYYYSIRIGIEKRAQELDYDIVRYFDNDISKVSADIVGLIAIGKFSTYQIAELEKLSDKLIFVDSDTLNAGYPCVMTDFDNAVVKVLDYFLDHGLTKIGMIAGEEKTTDGRELLIDQRFRTFRNYAYEQDIYNPNYIFIGDFSAQTGYHLMKKAIKELKENLPQAFFIANDSLAIGALRALQEANIPVPNRVSLISFNDTALTKQVFPALSSITVFTKEMGRTAVDILNRQILNPDIIPSMTRLTTQLTLRESSI	not soluble
MGSDKIHHHHHHMINLKELKILHTSDWHLGVTSWTSSRPVDRREELKKALDKVVEEAEKREVDLILLTGDLLHSRNNPSVVALHDLLDYLKRMMRTAPVVVLPGNHDWKGLKLFGNFVTSISSDITFVMSFEPVDVEAKRGQKVRILPFPYPDESEALRKNEGDFRFFLESRLNKLYEEALKKEDFAIFMGHFTVEGLAGYAGIEQGREIIINRALIPSVVDYAALGHIHSFREIQKQPLTIYPGSLIRIDFGEEADEKGAVFVELKRGEPPRYERIDASPLPLKTLYYKKIDTSALKSIRDFCRNFPGYVRVVYEEDSGILPDLMGEIDNLVKIERKSRREIEEVLRESPEEFKEELDKLDYFELFKEYLKKREENHEKLLKILDELLDEVKKSEA	not soluble
MGSDKIHHHHHHMINQVYRLVSERQFEVANVDESLTGDVVVVRPTHLSICAADQRYYTGSRGKEMLSKKLPMALIHEGVGEVVYDATKEFKPGAKVVMIPNTPFENDPVIAENYLRSSKFRSSGYDGLMQDYVFMRRDRVVALPDDINMKVAAFSELISVAVHAILRFEGKSNANRESFGVWGDGNLGFITSLLLKNWYPDSKVYIFGKTPYKLDFFSFVDGAYAIDDVPADLVIDQAFECAGGMGSQYAVSQIIDVIKPEGTISLLGVSEYPIEFNSRMVLEKGLTVYGSSRSGRVDFEKTVEFLSTNKRGVEYLQNLVGEVHTVHSIQDVIEAFEADLRSPWGKSVMEWKI	not soluble
MGSDKIHHHHHHMINRELYMEQITPFIDKPFVKVITGIRRCGKSVVLRLIREELLRRGVSEDYIIYMNFESFEWIDMKEAKALYAHIREATKASGKYYILLDEIQEVTDWEKAVNAFLVDLDVDIYVTGSNSRLLSSEFSTYLAGRYVAFHIMTLSFREYLLFHDLPLTISVSDRKTEFLKYLRMGGFPAIHTANYDYNAIYKIVYDIYSSVILRDTVQRHSIRNVEMLERVVKFVFDNIGNKLNAKNIADYFKSQQRKVDINTIYNYLNALDSAFVIQRIPRYDIKGKEILQTNEKYFVSDLSLIYSVMGYRDRLIGGMLENLVCMELKRRGYEVYVGKQDEKEVDFVAIRREEKIYVQVTYQLGLQATIDREFAPLLAIDDHYPKYVVSMDDLWQDNIEGVKHRHIADFLLDEW	not soluble
MGSDKIHHHHHHMIPDKSVEILLGELSRDIAQRTPGTGDFPTAVEGLELFRRNEPAPPVSCLVPPSIVLVADGAKIMWVGGEPYEYNAEKFLITSLDLPASSEILQASTSQPCVGVAYKLDQRVLMELIAQGSLPPVKKRDAGTSVGIGTITDALLEPFCRLLSLLDEPEAIPVLGPLIQREIHYRLLMSDQSDHLRQIAAVDGHGYRIGKAIDWLKTNIASPLRVEELASRVQMSTPSFHHHFRQLAGMSPLRYQKWLRLNEARRLMLNEHYDVTTAAYAVGYESLSHFSREYTRMFGESPKRDITELRKSAGKL	not soluble
MGSDKIHHHHHHMIPIVDSRIGAYLDGLLPEADPVVAAMEQIARERNIPIVDRQTGRLLYLLARIKQPQLVVVPGDGLGCASWWFARAISISSRVVMIDPDRDNVEHARRMLHDNGLIDRVELQVGDPLGIAAGQRDIDILFMDCDVFNGADVLERMNRCLAKNALLIAVNALRRGSVAESHEDPETAALREFNHHLSRRRDFFTTIVPVGNGVLLGYRLS	not soluble
MGSDKIHHHHHHMIPRLELRSITKCYPGTVANDAVSLSILPGEIHAVLGENGAGKSTLMKIIYGAAQADSGEIYCDGRRIEAHNPAISRSLGIEMVYQHFALFESVSVVENIALAVKGTFDLDRLAAEIKTLSARYGMPIDPHRRVHDLSVGERQRVEIVRCLLQSPKLLILDEPTSVLTPQAVVKLFETLRQLASEGCSIVYISHKLDEVQELCDTATVLRNGKVTGTAKPKESTSLELARMMVGSQLPQMHVSPSAPSAKPLLEVRGLSAPARDKYGTELTDVSLEVHGGEIVGLAGVSGNGQAELIALLSGERTHPRAETILIGGRPSGHLNAGERRKLGMAFVPEERLGRGAVPPHALWENAVLTAHRAGLVRNALVDRRRAGEFARHIIERFKVKANGPQASAQSLSGGNLQKFIVGRELTLEPKILLVSQPTWGVDVGAAAFIRQTLVDLSRGGAAVLVVSEELDELFEICDRLLVISNGRVSPPLIRKQTNREEIGLLMTRVGHGETRRSEVALED	not soluble
MGSDKIHHHHHHMIPRNEYLENLISFRDKQLIKVVTGIRRCGKSTLFELYQDYLLQNDVKPEQIIAFNLEDGDWAEIENSKDLYELVKARLLPDRMNYVFLDEVQRVTDFQKAVDSLFIKKNCDVYITGSNAYLLSGELATLLSGRYVEIKMLPLSFKEYVSAFPPDSSIDRLYQDYIHNSSFPYTLELKRQKDIRQYLDGLYDSIVLKDIVARRRFPDLAMLQSVVRFLFDNIGNLCSTKKIADTMTSAGRKITVHTVESYLTALTDSFIFYRVGRYDVKGKQYLKTGDKYYAADMGLRYNALGTKKADAGHILENIVYLELLRRGYEVHIGKVGAAEIDFIAIGPEGEEYYQVAYTVMDADGKTLQRELAPLDAISDHNPKFLLTMDHGPLVSHNGIKQLNALDWLLK	not soluble
MGSDKIHHHHHHMIPTIRLHSQQLINPVFNNPKDLVSWMGGIQAQDYTMSKWAIGIRLKAGNLQTVNEALAKGDILRIHVMRPTWHYVAAEDIRWMLKLSSRRIITANDSFAKSRGQDISVDIYNKANRLLEKALAGHNHLTKQEIDNIFKEGGLETNERLSNRFLIHAEAEGLICSGADKNNKITFALLDERVPPIQELHKEEALAILARKYFRSHSPASLKDFVWWSGLSVTEARQGIAAIEQELLTDRFLAQKLYVHQSYKEEKTTDILHILPSYDEYLISYKDRTDVLNKEYQHKAFNSFGIFRPVILYNGQIVGNWNKVIQKQTTHIEMNWFKKNTKIKRELLSLAERKYLTFFSEL	not soluble
MGSDKIHHHHHHMIQIKRGKIVGFNERVGRAFHPAQVAEPAQHAPHQRRLARTEVAFQIEGHAGRQAGRKPRAERKRGGLVGKVATRRRGIIRGMHEQDSPRDFGRLAAQIKQWGRELGFAAIGITDADLSAAEAGLHTWLDKGFHGEMDYMAAHGTKRSRPAELVPGTLRIISARLDYFPPDAVDPDTILATPDAAYVSRYALGRDYHKVLRQRLQTLAERIGAAAGEHHFRVFSDSAPVMEVELATRAGLGWRGKHTLLLNRHHGSWFFLGEIYSDLPLPVDAPEAEHCGTCHACLDACPTQAIVAPYSVDARRCISYLTIELKGSIPLELRSLIGNRIYGCDDCQLVCPWNRFAGTAAVPDFAVRNGLDSAQLVDLFAWSEADFNDRLAGSPIRRIGHERWLRNIAVALGNARPAPAIEAALGTRLDHPSAMVREHVAWALARQQER	not soluble
MGSDKIHHHHHHMIRKHFKGYNFVCIPETGVTFRWGDSIAEDPYMAPWPELADISISNYCTNGCEYCYRASNEEGIFMTVADYKFILGQLTSKEYGSIFQVALGGGEPLLHPDFNEILHVTREEYGIIPNYTTCGKYFNQKNMEASKKYCGAVAVSWDPYRDNLSLEELRELGVQLKEEKIRTNIHYVISERTLIEAIKLLKGKYDEYLKDFNSVIFLTYKAAGRADKSDVIKSQKYLREFLDMVDAPLTKLKLGFDACFVPVLMKATGVDTDLVDSCECGFFSVYVSESMEVMPCSFCNNSNFTYNLKDLCFKDIWQKHFSAYRSYVNDNCKTGCAECDERSGCRGKCSFYNDIYLCNLV	not soluble
MGSDKIHHHHHHMIRNKAFVVRLYPNAAQTELINRTLGSARFVYNHFLARRIAAYKESGKGLTYGQTSSELTLLKQAEETSWLSEVDKFALQNSLKNLETAYKNFFRTVKQSGKKVGFPRFRKKRTGESYRTQFTNNNIQIGEGRLKLPKLGWVKTKGQQDIQGKILNVTVRRIHEGHYEASVLCEVEIPYLPAAPKFAAGVDVGIKDFAIVTDGVRFKHEQNPKYYRSTLKRLRKAQQTLSRRKKGSARYGKAKTKLARIHKRIVNKRQDFLHKLTTSLVREYEIIGTEHLKPDNMRKNRRLALSISDAGWGEFIRQLEYKAAWYGRLVSKVSPYFPSSQLCHDCGFKNPEVKNLAVRTWTCPNCGETHDRDENAALNIRREALVAAGISDTLNAHGGYVRPASAGNGLRSENHATLVV	not soluble
MGSDKIHHHHHHMIRVLLANPRGFCAGVDRAIEIVERALAMYGAPIYVRHEVVHNRFVVEDLEKKGAVFVENLEEVPEGSMLIFSAHGVSHEVRREAAARKLQIFDATCPLVTKVHVEVAKMDKEGKEIVMIGHQGHPEVEGTMGQIAKSKGTMYLVETAEDVARLQVKNESNLAYVTQTTLSVDDAARVIEALKQRFPKIIGPKKDDICYATQNRQDAVKKLVKLCDLVVVVGSPNSSNSNRLCEVARNENVEAYMVDQAEQLQESWLTNKRCIGITAGASAPEILVQQVLERLEQIAAKQSNQGVIIEELSGVLESVTFPLPKAEPVSFNKYI	not soluble
MGSDKIHHHHHHMISDIPFLALLPLGAHEYHGDHLPFETDWIIAEAFAKALTVKTKKQFHIALLPVEKIGYSIEHMDVSGTQTLTFSEAIERWINIGEDCYRKGIKRFLLLNAHGGNSPLMSIVITELRKRFSMLAVATSWTRFGLPHGLMHPSQHHLDIHGGFIETSLMLYLAPEKVHMEKAKNFYNKQADMIANYQYLRAYGPHAFGWTMRDLNLQGAAGKAREATSQAGKAIFSHVLGGLRGLLDDINRFKIDAL	not soluble
